Type in all cases: cell-based, human
Assay [1] concerns p-CDCP1-Y734 in HEY cells. In words: Western blot of CDCP1-Y734 and Src-Y416 phosphorylation in HEY cells. The settings on record: 5 μg/ml. The procedure: Cells were biotinylated (4° C., 1 h) with cell-impermeant EZ-link NHS-SS Biotin (1.22 mg/ml; Thermo) then PBS washed and lysed in buffer containing 20 mM HEPES, 150 mM NaCl, 1 mM EDTA, 1% Triton X-100, 1×Complete protease inhibitor cocktail (PIC) and phosphatase inhibitors (2 mM Na3VO4, 10 mM NaF). After centrifugation the supernatant was incubated (15 minutes, 4° C.) with ImmunoPure immobilized streptavidin beads (Thermo). After pelleting, the supernatant containing intracellular proteins was transferred to a separate tube, and the beads washed in lysis buffer containing PIC and phosphatase inhibitors. Lysates and proteins separated by cell surface biotinylation (40 μg/lane) were examined by Western blot analysis as described (He Y, et al., (2016) Oncogene. 35(4):468-78).
Since Src tyrosine phosphorylation is important in CDCP1-mediated signal transduction (Casar B, et al., (2012) Oncogene. 31(35):3924-38), the inventors next examined this in antibody induced processing of CDCP1. […] Live-cell images of the four cell lines were analysed to determine the distance moved (track length) by individual CDCP1^GFP positive puncta during mAb-induced internalization (FIG. 5C, left). […]

For assay [2], the system named is HEY cells. In words: Colony formation assay, HEY cells. The procedure: (§1) MMAE-conjugated 10D7 and IgG1K were prepared as described (Nielsen C F, et al., (2017) Oncotarget. 8(27):44605-24.53) and drug-antibody ratio (DAR) determined by reverse phase LC/MS as reported (Basa L. et al., (2013) Methods Mol Biol. 1045:285-93.) on an ABSCIEX Triple TOF spectrometer (AB SCIEX Framingham, Mass.) coupled to a Shimadzu Nexera 1D UHPLC system (Shimadzu, Rydalmere, Australia). ADC peak identification was performed as reported with DAR determined by peak area integration (Hamblett K J, et al., (2004) Clin Cancer Res. 10(20):7063-70; Yao X, et al., (2015) Breast Cancer Res Treat. 153(1):123-33). Colony-formation assays were performed as described (Crowley L C, et al., (2016) Cold Spring Harb Protoc. 2016(8):pdb.prot087171) on cells (100,000/ml) treated with the indicated concentrations of 10D7, 10D7-MMAE, IgG or IgG-MMAE overnight before being lifted and replated in 24-well plates (200 cells/well). After a defined growth period media was removed and cells gently PBS washed before staining with 0.1% crystal violet (Sigma-Aldrich) in 2% ethanol. After 20 minutes and stained cells were scanned (700 nm) on a LiCOR System (Odyssey V3.0 software) with images analyzed using the ColonyArea ImageJ plugin to quantify colony area and intensity (Guzmán C, et al., (2014) PLoS One. 9(3):e92444.). […]

The test system of assay [3] is OVMZ6-CDCP1 cells. The assay is described as follows: Colony formation assay, OVMZ6-CDCP1 cells. On the procedure: as §1
The subject of assay [4] is PANC-1 cells. The assay is described as follows: Survival assay with cytotoxin-conjugated antibodies, PANC-1. As to conditions: PANC-1, 1 μg/ml, 12 h treatment then 72 h growth. The procedure: (§2) The relative number of viable cells was then measured by adding the CellTiter AQueous One Solution Reagent to each well and measuring absorbance at 490 nm as described above. […] Cells were imaged by wide-field fluorescence microscopy and the total area of confluence for each cell type was quantified by image analysis using Image J software.

Assay [5] has as its system TKCC02 cells. In words: Survival assay with cytotoxin-conjugated antibodies, TKCC02. As to conditions: TKCC02, 1 μg/ml, 12 h treatment then 72 h growth. The procedure:
as §2

Assay [6] deals with TKCC05 cells. The assay is described as follows: Survival assay with cytotoxin-conjugated antibodies, TKCC05. The settings on record: TKCC05, 1 μg/ml, 12 h treatment then 72 h growth. The procedure:
as §2

For assay [7], the system named is TKCC10 cells. The assay is described as follows: Survival assay with cytotoxin-conjugated antibodies, TKCC10. As to conditions: TKCC10, 1 μg/ml, 12 h treatment then 72 h growth. On the procedure:
as §2

B1: 10D7-MMAE (conjugate)
VH: EVQLQQFGAELVKPGASVKISCKASGYSFSDFNIEWLKQSHGKSLEWIGDINPNYDSTNYNQKFKGRATLTVDKSSSTAYMEVRSLTSEDTAVYYCARLGYGYAMDYWGQGTSVTVSS
VL: NIVMTQSPQSMSMSVGERVTLSCKASENVGAYVSWFQQKPDQSPKLLILAASNRYTGVPARFIGSGSATDFTLTISSVQAEDLADYHCGQSYTYPYTFGGGTKLEIKRADAAPTVS
For the molecule B1, the “time to phosphorylation of CDCP1-Y734 and Src-Y416” value in assay [1] was at most 1 h. The “half maximum dose required to block colony formation” value in assay [2] was “approximately 0.2 μg/ml”; in assay [3], around 0.07 µg/mL. For the same molecule, the survival of cells result was “about 20%” in assay [4], “about 25%” in assay [5], “about 10%” in assay [6] and “about 50%” in assay [7].

Source of the values: US20220389113A1, “BINDING PROTEINS TO CUB DOMAIN-CONTAINING PROTEIN (CDCP1)” (COMMONWEALTH SCIENTIFIC AND INDUSTRIAL RESEARCH ORGANISATION, priority 2019, published 2022).
